Biological target: His-sumo-TBC1D15 (shark TBC1D15 from Chiloscyllium plagiosum) (Chiloscyllium plagiosum)

release of inorganic phosphate (Pi) by GTP hydrolysis, A360 read every 5 min (EnzChek Phosphate Assay Kit; Rab7 700 nM, TBC1D15 300 nM, 22 °C); Rab or TBC1D15 alone as the blank: 0.4 A360
Substance: MBP-Rab7a-WT (from UniProt P51149 1-207) (natural protein)
